In PMC5030094, “Human DNA2 possesses a cryptic DNA unwinding activity that functionally integrates with BLM or WRN helicases”:

Molecular target: T1, hDNA2 D277A (nuclease-deficient) (Homo sapiens, UniProt P51530 1-1060, D277A)
T1 sequence: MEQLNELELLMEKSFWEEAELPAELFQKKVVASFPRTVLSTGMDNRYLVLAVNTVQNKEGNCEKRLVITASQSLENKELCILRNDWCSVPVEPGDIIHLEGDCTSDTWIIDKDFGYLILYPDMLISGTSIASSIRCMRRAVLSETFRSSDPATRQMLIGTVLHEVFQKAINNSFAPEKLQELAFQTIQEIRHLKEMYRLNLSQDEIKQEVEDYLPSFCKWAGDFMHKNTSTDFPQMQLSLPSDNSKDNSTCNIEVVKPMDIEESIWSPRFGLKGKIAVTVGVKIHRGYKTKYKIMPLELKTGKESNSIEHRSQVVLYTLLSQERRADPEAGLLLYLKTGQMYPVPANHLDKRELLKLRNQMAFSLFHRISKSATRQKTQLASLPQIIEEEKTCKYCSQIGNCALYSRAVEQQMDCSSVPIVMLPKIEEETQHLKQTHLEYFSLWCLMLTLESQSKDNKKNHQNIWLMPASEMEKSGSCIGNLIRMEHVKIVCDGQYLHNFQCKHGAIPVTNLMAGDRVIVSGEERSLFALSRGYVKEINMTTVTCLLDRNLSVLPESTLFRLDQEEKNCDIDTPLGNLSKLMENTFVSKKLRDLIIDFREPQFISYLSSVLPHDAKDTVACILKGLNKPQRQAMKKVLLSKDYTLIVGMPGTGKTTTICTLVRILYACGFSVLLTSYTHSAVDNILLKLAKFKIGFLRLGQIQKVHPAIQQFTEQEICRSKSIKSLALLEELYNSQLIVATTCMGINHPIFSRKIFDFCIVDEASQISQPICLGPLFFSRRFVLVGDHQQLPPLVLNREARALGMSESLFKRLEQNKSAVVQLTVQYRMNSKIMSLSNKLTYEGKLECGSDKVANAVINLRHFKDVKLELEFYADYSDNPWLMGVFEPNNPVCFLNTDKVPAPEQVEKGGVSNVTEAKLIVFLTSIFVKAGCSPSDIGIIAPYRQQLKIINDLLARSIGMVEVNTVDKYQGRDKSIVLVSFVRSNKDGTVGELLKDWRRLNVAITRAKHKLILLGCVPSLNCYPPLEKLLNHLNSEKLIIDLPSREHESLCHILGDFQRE
Assay: EMSA; no RPA; 25 mM Tris-acetate pH 7.5, 2 mM Mg acetate, 1 mM DTT, 0.1 mg/ml BSA, 1 nM DNA, 37 C 30 min; 6% PAGE in TAE on ice
Conditions: protein: recombinant; tags: N-terminal 6xHis, C-terminal FLAG; label: 5' 32P; single strand

## GACGTCATAGACGATTACATTGCTAGGACATGCTGTCTAGAGACTATCGC (ssDNA) [ssDNA 50 nt (X12-3)]
  Kd: ~2 nM
